# Measurements published in FireProtDB (doi:10.1002/prot.20212).
# “And” between values parts separate entries of the source, which are not always exact repeats. Identical values can stand only once.
# B1: Alpha-lactalbumin wild type, P00712 (protein)
# chain: MMSFVSLLLVGILFHATQAEQLTKCEVFQKLKDLKDYGGVSLPEWVCTAFHTSGYDTQAIVQNNDSTEYGLFQINNKIWCKDDQNPHSRNICNISCDKFLDDDLTDDIVCAKKILDKVGINYWLAHKALCSEKLDQWLCEKL
# Details: Capra hircus, 25 °C, GdnHCl, CD, Tris 20 mM, Na+ 80 mM, whole UniProt chain shown
protein,measurement,setting,value
B1,denaturant m value,"pH 4.5, transition: 3",1.34 kcal/mol/M and 1.19 kcal/mol/M
same,unfolding free energy,"pH 4.5, transition: 3",3.39 kcal/mol and 3.38 kcal/mol
same,denaturant m value,pH 4.5,2.53 kcal/mol/M
same,unfolding free energy,pH 4.5,6.79 kcal/mol
same,denaturant m value,pH 5.5,2.75 kcal/mol/M
same,unfolding free energy,pH 5.5,8.8 kcal/mol
same,denaturant m value,pH 7.5,3 kcal/mol/M
same,unfolding free energy,pH 7.5,10.2 kcal/mol
